Results as given in article PMC10397247.

Key:
[1] = biological target: T1, 4H3381-AA; experiment: two-hybrid library CCmax;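 note: natural log of median RNA to DNA barcode read ratio; higher means stronger binding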
T1 chain: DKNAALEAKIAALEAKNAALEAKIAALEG

[2] = biological target: T2, 4H310-AA; experiment: two-hybrid library CCmax; settings: mean of both orientations;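 note: natural log of median RNA to DNA barcode read ratio; higher means stronger binding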
T2 chain: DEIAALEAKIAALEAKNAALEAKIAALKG

[3] = biological target: T3, 4H1877-AA; experiment: two-hybrid library CCmax;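 note: natural log of median RNA to DNA barcode read ratio; higher means stronger binding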
T3 chain: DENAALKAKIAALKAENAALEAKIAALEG

[4] = biological target: T4, 4H3410-AA; experiment: two-hybrid library CCmax; settings: mean of both orientations;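 note: natural log of median RNA to DNA barcode read ratio; higher means stronger binding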
T4 chain: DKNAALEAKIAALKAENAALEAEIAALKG

[5] = biological target: T5, 4H909-AA; experiment: two-hybrid library CCmax; settings: mean of both orientations;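 note: natural log of median RNA to DNA barcode read ratio; higher means stronger binding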
T5 chain: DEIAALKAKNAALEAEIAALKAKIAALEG

[6] = biological target: T6, 4H891-AA; experiment: two-hybrid library CCmax; settings: mean of both orientations;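 note: natural log of median RNA to DNA barcode read ratio; higher means stronger binding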
T6 chain: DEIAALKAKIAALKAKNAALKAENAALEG

[7] = biological target: T7, 4H2649-AA; experiment: two-hybrid library CCmax; settings: mean of both orientations
T7 chain: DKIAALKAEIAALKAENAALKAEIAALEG

[8] = biological target: T8, 4H850-AA; experiment: two-hybrid library CCmax; settings: mean of both orientations
T8 chain: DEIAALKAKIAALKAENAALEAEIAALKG

[9] = biological target: T9, 4H2865-AA; experiment: two-hybrid library CCmax; settings: mean of both orientations
T9 chain: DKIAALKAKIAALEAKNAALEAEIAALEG

[10] = biological target: T10, 4H485-AA; experiment: two-hybrid library CCmax; settings: mean of both orientations
T10 chain: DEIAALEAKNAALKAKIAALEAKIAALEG

[11] = biological target: T11, 4H2389-AA; experiment: two-hybrid library CCmax; settings: mean of both orientations
T11 chain: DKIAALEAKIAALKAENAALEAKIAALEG

[12] = biological target: T12, 4H710-AA; experiment: two-hybrid library CCmax; settings: mean of both orientations
T12 chain: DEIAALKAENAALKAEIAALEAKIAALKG

[13] = biological target: T13, 4H3016-AA; experiment: two-hybrid library CCmax; settings: mean of both orientations
T13 chain: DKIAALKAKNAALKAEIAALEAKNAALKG

[14] = biological target: T14, 4H3130-AA; experiment: two-hybrid library CCmax; settings: mean of both orientations
T14 chain: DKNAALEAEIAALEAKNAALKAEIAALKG

[15] = biological target: T15, 4H2162-AA; experiment: two-hybrid library CCmax; settings: mean of both orientations
T15 chain: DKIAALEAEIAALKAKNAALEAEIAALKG

[16] = biological target: T16, 4H2274-AA; experiment: two-hybrid library CCmax; settings: mean of both orientations
T16 chain: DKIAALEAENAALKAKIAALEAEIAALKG

[17] = biological target: T17, 4H3165-AA; experiment: two-hybrid library CCmax; settings: mean of both orientations
T17 chain: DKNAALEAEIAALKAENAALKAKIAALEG

[18] = biological target: T18, 4H3395-AA; experiment: two-hybrid library CCmax; settings: mean of both orientations
T18 chain: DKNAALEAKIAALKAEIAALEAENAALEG

[19] = biological target: T19, 4H2698-AA; experiment: two-hybrid library CCmax; settings: mean of both orientations
T19 chain: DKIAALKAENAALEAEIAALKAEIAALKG

[20] = biological target: T20, 4H458-AA; experiment: two-hybrid library CCmax; settings: mean of both orientations
T20 chain: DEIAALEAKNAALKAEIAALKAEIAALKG

[21] = biological target: T21, 4H2473-AA; experiment: two-hybrid library CCmax; settings: mean of both orientations
T21 chain: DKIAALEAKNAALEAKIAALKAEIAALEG

[22] = biological target: T22, 4H930-AA; experiment: two-hybrid library CCmax; settings: mean of both orientations
T22 chain: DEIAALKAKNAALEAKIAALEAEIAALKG

[23] = biological target: T23, 4H3590-AA; experiment: two-hybrid library CCmax; settings: mean of both orientations
T23 chain: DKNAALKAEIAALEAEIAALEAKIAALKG

[24] = biological target: T24, 4H536-AA; experiment: two-hybrid library CCmax; settings: mean of both orientations
T24 chain: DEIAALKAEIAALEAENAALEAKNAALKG

[25] = biological target: T25, 4H797-AA; experiment: two-hybrid library CCmax; settings: mean of both orientations
T25 chain: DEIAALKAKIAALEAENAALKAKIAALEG

[26] = biological target: T26, 4H2438-AA; experiment: two-hybrid library CCmax; settings: mean of both orientations
T26 chain: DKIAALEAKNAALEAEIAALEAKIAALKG

[27] = biological target: T27, 4H629-AA; experiment: two-hybrid library CCmax; settings: mean of both orientations
T27 chain: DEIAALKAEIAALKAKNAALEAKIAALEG

[28] = biological target: T28, 4H2109-AA; experiment: two-hybrid library CCmax; settings: mean of both orientations
T28 chain: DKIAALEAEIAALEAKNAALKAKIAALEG

[29] = biological target: T29, 4H570-AA; experiment: two-hybrid library CCmax; settings: mean of both orientations
T29 chain: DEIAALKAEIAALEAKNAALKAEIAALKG

[30] = biological target: T30, 4H3865-AA; experiment: two-hybrid library CCmax; settings: mean of both orientations
T30 chain: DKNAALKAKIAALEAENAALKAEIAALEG

[31] = biological target: T31, 4H3120-AA; experiment: two-hybrid library CCmax; settings: mean of both orientations
T31 chain: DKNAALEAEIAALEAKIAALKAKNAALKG

[32] = biological target: T32, 4H3009-AA; experiment: two-hybrid library CCmax; settings: mean of both orientations
T32 chain: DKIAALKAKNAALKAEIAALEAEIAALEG

[33] = biological target: T33, 4H745-AA; experiment: two-hybrid library CCmax; settings: mean of both orientations
T33 chain: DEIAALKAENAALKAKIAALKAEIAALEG

[34] = biological target: T34, 4H3753-AA; experiment: two-hybrid library CCmax; settings: mean of both orientations
T34 chain: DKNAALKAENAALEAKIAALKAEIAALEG

[35] = biological target: T35, 4H2725-AA; experiment: two-hybrid library CCmax; settings: mean of both orientations
T35 chain: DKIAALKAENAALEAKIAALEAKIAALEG

[36] = biological target: T36, 4H2330-AA; experiment: two-hybrid library CCmax; settings: mean of both orientations
T36 chain: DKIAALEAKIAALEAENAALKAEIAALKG

[37] = biological target: T37, 4H2253-AA; experiment: two-hybrid library CCmax; settings: mean of both orientations
T37 chain: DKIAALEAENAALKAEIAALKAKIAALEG

[38] = biological target: T38, 4H94-AA; experiment: two-hybrid library CCmax; settings: mean of both orientations
T38 chain: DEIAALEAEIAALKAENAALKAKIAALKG

[39] = biological target: T39, 4H3697-AA; experiment: two-hybrid library CCmax; settings: mean of both orientations
T39 chain: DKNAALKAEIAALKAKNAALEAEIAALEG

[40] = biological target: T40, 4H967-bA; experiment: two-hybrid library CCNG1
T40 chain: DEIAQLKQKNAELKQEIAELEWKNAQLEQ

[41] = biological target: T41, 4H568-bA; experiment: two-hybrid library CCNG1
T41 chain: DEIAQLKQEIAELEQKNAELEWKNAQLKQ

[42] = biological target: T42, 4H717-bA; experiment: two-hybrid library CCNG1
T42 chain: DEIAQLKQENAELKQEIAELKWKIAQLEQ

[43] = biological target: T43, 4H3354-bA; experiment: two-hybrid library CCNG1
T43 chain: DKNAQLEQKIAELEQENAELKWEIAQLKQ

[44] = biological target: T44, 4H687-bA; experiment: two-hybrid library CCNG1
T44 chain: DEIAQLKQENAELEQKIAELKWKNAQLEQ

[45] = biological target: T45, 4H331-bA; experiment: two-hybrid library CCNG1
T45 chain: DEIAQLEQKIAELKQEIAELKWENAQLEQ

[46] = biological target: T46, 4H953-bA; experiment: two-hybrid library CCNG1
T46 chain: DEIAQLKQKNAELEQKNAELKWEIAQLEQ

[47] = biological target: T47, 4H908-bA; experiment: two-hybrid library CCNG1
T47 chain: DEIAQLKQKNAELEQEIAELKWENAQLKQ

[48] = biological target: T48, 4H454-bA; experiment: two-hybrid library CCNG1
T48 chain: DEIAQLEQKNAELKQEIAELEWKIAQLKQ

[49] = biological target: T49, 4H607-bA; experiment: two-hybrid library CCNG1
T49 chain: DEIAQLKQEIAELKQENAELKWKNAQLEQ

[50] = biological target: T50, 4H3855-bA; experiment: two-hybrid library CCNG1
T50 chain: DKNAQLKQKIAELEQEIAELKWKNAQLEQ

[51] = biological target: T51, 4H338-bA; experiment: two-hybrid library CCNG1
T51 chain: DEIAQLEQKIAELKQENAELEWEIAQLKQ

[52] = biological target: T52, 4H3606-bA; experiment: two-hybrid library CCNG1
T52 chain: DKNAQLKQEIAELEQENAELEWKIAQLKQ

[53] = biological target: T53, 4H918-bA; experiment: two-hybrid library CCNG1
T53 chain: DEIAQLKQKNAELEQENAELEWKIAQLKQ

[54] = biological target: T54, 4H797-bA; experiment: two-hybrid library CCNG1
T54 chain: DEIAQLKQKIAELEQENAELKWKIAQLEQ

[55] = biological target: T55, 4H4001-bA; experiment: two-hybrid library CCNG1
T55 chain: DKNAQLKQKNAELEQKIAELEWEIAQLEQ

[56] = biological target: T56, 4H370-bA; experiment: two-hybrid library CCNG1
T56 chain: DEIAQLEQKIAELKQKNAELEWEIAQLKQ

[57] = biological target: T57, 4H883-bA; experiment: two-hybrid library CCNG1
T57 chain: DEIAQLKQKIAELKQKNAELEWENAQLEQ

[58] = biological target: T58, 4H3843-bA; experiment: two-hybrid library CCNG1
T58 chain: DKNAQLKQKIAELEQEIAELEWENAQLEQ

[59] = biological target: T59, 4H72-bA; experiment: two-hybrid library CCNG1
T59 chain: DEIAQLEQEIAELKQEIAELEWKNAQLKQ

[60] = biological target: T60, 4H3782-bA; experiment: two-hybrid library CCNG1
T60 chain: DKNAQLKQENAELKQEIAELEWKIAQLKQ

[61] = biological target: T61, 4H754-bA; experiment: two-hybrid library CCNG1
T61 chain: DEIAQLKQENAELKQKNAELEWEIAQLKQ

[62] = biological target: T62, 4H3427-bA; experiment: two-hybrid library CCNG1
T62 chain: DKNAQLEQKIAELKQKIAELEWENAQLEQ

[63] = biological target: T63, 4H462-bA; experiment: two-hybrid library CCNG1; settings: mean of both orientations
T63 chain: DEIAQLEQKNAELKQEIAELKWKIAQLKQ

B1: 4H1877-AA (peptide)
chain: DENAALKAKIAALKAENAALEAKIAALEG
interaction score [1]: -0.523
interaction score [2]: -0.467
interaction score [3]: 0.288
interaction score [4]: -1.43
interaction score [5]: -1.84
interaction score [6]: -1.36
interaction score [7]: -0.409
interaction score [8]: -1.25
interaction score [9]: -0.796
interaction score [10]: 0.957
interaction score [11]: -1.07
interaction score [12]: -0.752
interaction score [13]: 0.714
interaction score [14]: 1.82
interaction score [15]: -1.25
interaction score [16]: -1.35
interaction score [17]: 0.715
interaction score [18]: -1.77
interaction score [19]: -1.45
interaction score [20]: -0.933
interaction score [21]: -1.47
interaction score [22]: -1.46
interaction score [23]: -0.565
interaction score [24]: -0.101
interaction score [25]: 0.589
interaction score [26]: -1.24
interaction score [27]: -0.167
interaction score [28]: 1.92
interaction score [29]: 1.9
interaction score [30]: 0.523
interaction score [31]: -1.28
interaction score [32]: 1.03
interaction score [33]: -1.08
interaction score [34]: -1.7
interaction score [35]: -0.897
interaction score [36]: -1.51
interaction score [37]: -1.17
interaction score [38]: 1.3
interaction score [39]: -0.0749

B2: 4H331-bA (peptide)
chain: DEIAQLEQKIAELKQEIAELKWENAQLEQ
interaction score [40]: -1.16
interaction score [41]: -0.11
interaction score [42]: -1.06
interaction score [43]: -0.749
interaction score [44]: -0.899
interaction score [45]: -0.244
interaction score [46]: -1.28
interaction score [47]: -1.83
interaction score [48]: 0.885
interaction score [49]: -1.42
interaction score [50]: 0.317
interaction score [51]: -0.867
interaction score [52]: -0.929
interaction score [53]: -0.884
interaction score [54]: -0.644
interaction score [55]: 0.0797
interaction score [56]: -0.724
interaction score [57]: -0.483
interaction score [58]: 0.72
interaction score [59]: 1.23
interaction score [60]: -0.0209
interaction score [61]: -0.893
interaction score [62]: 0.677
interaction score [63]: -0.426
